# From patent US20240294624A1, “ANTI-ERYTHROPOIETIN ANTIBODY” (ANDREMACON S.R.L., priority 2021, published 2024)
# How the values were obtained:
# [1] = test system: A2780; test: Caspase Glo 3/7 assay; assay type: cell-based, human
# Description: (§1) Furthermore, cellular models were treated the above-mentioned pharmacological drugs and apoptotic effect was evaluated by caspase activity.
# (§2) Data are expressed as the mean±standard deviation of at least 3 experiments in triplicate. *P<0.05 versus CTR for all treatments tested.
# [2] = test system: A549; test: Caspase Glo 3/7 assay; assay type: cell-based, human
# Description: as §1, §2
# [3] = test system: DLD1; test: Caspase Glo 3/7 assay; assay type: cell-based, human
# Description: as §1, §2
# [4] = test system: GBM-CSCs; test: Caspase Glo 3/7 assay; assay type: cell-based, human
# Description: as §1, §2
# [5] = test system: GECs; test: Caspase Glo 3/7 assay; assay type: cell-based, human
# Description: as §1, §2
# [6] = test system: GSCs; test: Caspase Glo 3/7 assay; assay type: cell-based, human
# Description: as §1, §2
# [7] = test system: K562; test: Caspase Glo 3/7 assay; assay type: cell-based, human
# Description: as §1, §2
# [8] = test system: LNCAP; test: Caspase Glo 3/7 assay; assay type: cell-based, human
# Description: as §1, §2
# [9] = test system: MCF-7; test: Caspase Glo 3/7 assay; assay type: cell-based, human
# Description: as §1, §2
# [10] = test system: PC-3; test: Caspase Glo 3/7 assay; assay type: cell-based, human
# Description: as §1, §2
# [11] = test system: SHSY-5Y; test: Caspase Glo 3/7 assay; assay type: cell-based, human
# Description: as §1, §2
# [12] = test system: anaplastic astrocytoma cancer stem cells; test: Caspase Glo 3/7 assay; assay type: cell-based, human
# Description: as §1, §2
# [13] = test system: GBM-ECs; test: Tube formation assay on Matrigel; assay type: cell-based, human; conditions: 48 h
# Description: GBM-ECs (1×10^4) were plated on 10 μL of Matrigel in BM, as a Control Condition (CTR, FIG. 8A) or in media containing the anti-EPO (C4) (FIG. 8B), TMZ (FIG. 8C), FTY720 (FIG. 8D), and anti-EPO (C4)+TMZ+FTY720 (FIG. 8E) treatments, as reported above. GBM-ECs were incubated at 37° C., 5% C02, 5% 02. After 48 h, tube-like structure formation was evaluated by phase-contrast microscopy.
# [14] = test system: N9 microglia cells; test: Microglia proliferation and morphology after LPS; assay type: cell-based, murine; conditions: after LPS stimulation
# Description: N9 microglial cells were seeded in multiwell plates at a concentration of 1.5×10^4 for 24 hours. The following day the cells were administered the following treatments for 24 hours: • LPS; • Anti-EPO (c4) antibody administered alone; • Anti-EPO (c4) antibody in combination with LPS • Anti-EPO (c4) antibody in combination with LPS and FTY720
# N9 cells were detached with enzyme, and an aliquot of known volume was labeled with trypan blue and observed under the microscope for counting. Considering that the number of cells in the culture control, without any treatment, as being 100, the percentage of proliferation of N9 cultured in presence of LPS, anti-EPO (C4) antibody, combination of LPS and anti-EPO antibody was calculated (FIG. 15B).
# N9 cells were cultured in Iscove's Modified Dulbecco's MEM, IMDM containing streptomycin/1× penicillin and 2 mM L-glutamine, supplemented with FBS (fetal bovine serum) at 5%. The cells were plated at a concentration of 1.5×10^4 cells/cm2 and kept in a thermostatic incubator at 37° C., with 5% C02, for 24 hours, as above. The next day, the cells were exposed to different treatments for 48 hours. At the end of the treatments, cell viability and proliferation were assessed by staining with trypan blue and observed under the microscope for counting.
# The microglia were maintained in a basal culture medium and then activated with lipopolysaccharide (LPS). […]
# [15] = test system: HOC84 stem cells; test: Gene expression by RealTime PCR; assay type: cell-based, human; conditions: 72 h
# Description: The analysis was performed by the assessment of gene expression by RealTime PCR on genes related to apoptosis (FIG. 23A), proliferation (FIG. 23B), angiogenesis (FIG. 23C), and inflammation (FIG. 23D). HOC84 stem cells (2×10^5) were seeded into 25 cm2 collagen-coated culture flasks. […] At the end, total RNA was extracted following TRI-Reagent protocol and quantified with NanoDrop 1000 Spectro-photometer (Thermo Fisher Scientific). Reverse transcriptase reaction was executed using TranScriba Kit (A&A Biotechnology), loading 1 μg of RNA (A260/A280>1.8), according to manufacturer's instructions. qRT-PCR was performed using StepOnePlus™ (Thermo Fisher Scientific), 1 μg of cDNA, forward and reverse primers (250 nM each) Titan HotTaq EvaGreen® qPCR Mix (Bioatlas). Data were normalized to 18S expression, used as endogenous control. Relative gene expression was determined using the 2−ΔΔCt method (FIG. 23).
# [16] = test system: cancer cells; test: Neutralizing anti-EPO bioassay (MTT); assay type: cell-based; conditions: nineteen anti-EPO hybridoma culture supernatants compared; 96 h
# Description: The cell-based assay was used to measure the capacity of each clone to neutralize EPO signaling. […] Optical density values (O.D.) were recorded, and neutralizing activity of each clone was expressed as percentage of viability of cells treated with clones respect to control condition, BM (FIG. 1A).The best n=3 final clones were selected and specific monoclonal antibodies were separated and purified in PBS at PH7.4 sterilized by membrane filtration (produced in culture supernatant and purified by Protein A/G). Furthermore, anti-EPO monoclonal antibodies were sequenced by the following protocol: total RNA was extracted separately from several batches of cultured hybridoma cells, cDNA were then synthesized by reverse transcription using oligo-dT primers, and VH and VL were finally amplified by PCR. VH and VL fragments, respectively amplified by IgG degenerate primers and Kappa-specific primers, are represented by gel electrophoresis (FIG. 1B), confirming that isotypes were IgG Kappa.
molecule,measurement,setting,value
"anti-EPO (C4): isolated anti-Erythropoietin monoclonal antibody, VL SEQ ID NO:6, VH SEQ ID NO:14, hybridoma DSM ACC 3370 (antibody, listed as Homo sapiens, V domains shown, VH amino acid sequence; VL amino acid sequence) VH: EVKLQESGGGLVQPGGSLKLSCAASGFTFSTYTMSWVRQTPEKRLEWVAYISNGGDRTYYPDTVKGRFTISRDDAKNTLFLQMSSLKSEDTAMYYCARHNITTVPFTMDYWGQGTSVTVSS VL: DIVLTQSPASLAVSLGQRATISCRASESVDYYGTGLMQWYQQRPGQPPKLLIYGASNVGSGVPARFSGSGSGTDFSLNIHPVEGDDIAMYFCQQTRKVPSTFGGGTKLEIK",increment of apoptosis (caspase 3/7 activation),[1],234%
same,increment of apoptosis (caspase 3/7 activation),[2],200%
same,increment of apoptosis (caspase 3/7 activation),[3],217%
same,increment of apoptosis (caspase 3/7 activation),[4],210%
same,increment of apoptosis (caspase 3/7 activation),[5],220%
same,increment of apoptosis (caspase 3/7 activation),[6],200%
same,increment of apoptosis (caspase 3/7 activation),[7],180%
same,increment of apoptosis (caspase 3/7 activation),[8],220%
same,increment of apoptosis (caspase 3/7 activation),[9],218%
same,increment of apoptosis (caspase 3/7 activation),[10],243%
same,increment of apoptosis (caspase 3/7 activation),[11],200%
same,increment of apoptosis (caspase 3/7 activation),[12],205%
same,decrease of total length of formed tubes,[13],70%
same,formation of tubular-like structures,[13]; phase-contrast microscopy,able to block the formation of tubular-like structures
same,morphology of microglia,[14],recover or maintain a branched morphology
same,expression of genes related to angiogenesis,[15],significantly inhibits proliferation and angiogenesis
same,expression of genes related to apoptosis,[15],increases apotosis and inflammation
same,expression of genes related to inflammation,[15],higher expressed
same,neutralizing activity (inhibition of cancer cell viability),[16],higher neutralizing activity
